Assay: label from the status in PepcDB records

Sequence	protein production
MATLNKALTRPAAIAGIPIVPFVIVSGAIVLLSVYLSYYLVLLLIPAWLEMKAKARTDIHYFGLLWLAFKTRGRFATNKYFGANAMLANRYDAVDVSEFIEKMKLNERVTLDKHIPYSSHVHPQVIRNRHGDLVSTWELGGTVFECEDEHHLTLMATHLNNVIRSYEGLPITFYLHRIREKYQDAFAASSGIPFSDDVTALYYQPIKEKPLWRHRLFFTLCYAPFSRLEKKAMKAQPSGKRTAALDGALKVMLEHRAALASALSRYTATPLGVYEENGRVYSSQLSFYHRLLTGQWQKVAVTRSPFYDILSTPDVFFTTDTAECQTVSGSRFFRSLEIKDYSPDTATGLLDALLYAESEYVMTQSFTCMARDEAQNHIRLAEKRLNSAADDAISQREELIVLRDLLQSGHVSCGKYHFSLLVSSDSADQVVKDVNALAQPFADLGIMTTLSTLSLPAAYLAQLPGVYTLRPRLVAVSSQNFADMASLHNFHPHKRNGNPWGEAITIMTSPGGGGYYLNLHDSQAGRDDFNEKTPGNTAIIGKTGSGKTMLMTVMQQLMQKYRNPATFSESAPHKRLSTVYFDKDRAAEMAIRQMGGRYFRLRTGVPTGFNPFALAPTKRNISFIKRLVRMLCRRNSKPLDPRDEERISTAVDTIMLDYPPEYRRYGITRLLEVLPEPPTKEARTNGLRIRLKQWAQGGEFGWVFDNETDTFDISDIDNVGIDGTEFLDDDDIRGPITFYLLYRVTGLLDGRRLVMFMDEFWKWLADVEFSRFSLNMLKVIRKLNGIFIPATQSPDEIVRHPIAPAIIEQCGTQIFLANPKASRADYVEKMKVPDSVYDIVRHLDPGERYMVVLKTPLRAGETRPFVSMAKMDLSGLGKITRMLSGSEDNLKLFDALYQEGMQPDDWKDAFLEIAL	failed
MATPAYMSITGTKQGLITAGAFTEDSVGNTYQEGHEDQVMVQGFNHEVIIPRDPQSGQPTGQRVHKPVVITKVFDKASPLLLAALTSGERLTKVEIQWYRTSAAGTQEHYYTTVLEDAIIVDIKDYMHNCQDPGNAHFTHLEDVHFTYRKITWTHEVSGTSGSDDWRSPVAG	not failed
MATPKLEIGVIGLGKFGLQVSRTLVELGHSVVGIDSTEGRIRQAQDILSQVYQGNAADPAVLQQLRFQDLDCVIVSVGNSMETSLLVTLNLQEIGVRKIWVKAVSTEHKKVLTRLGVDHVILPEHDVATHLAHRLVNPGMLDLLPLGGGGQILLQELTVDKWAGRTLLDLRLANEHGVMVVAVKPAAFREYRFVPAAHEVLQQGDKLVVIGRHEDVLRLEP	failed
MATPVVTKTAWKLQEIVAHASNVSSLVLGKASGRLLATGGDDCRVNLWSINKPNCIMSLTGHTSPVESVRLNTPEELIVAGSQSGSIRVWDLEAAKILRTLMGHKANICSLDFHPYGEFVASGSQDTNIKLWDIRRKGCVFRYRGHSQAVRCLRFSPDGKWLASAADDHTVKLWDLTAGKMMSEFPGHTGPVNVVEFHPNEYLLASGSSDRTIRFWDLEKFQVVSCIEGEPGPVRSVLFNPDGCCLYSGCQDSLRVYGWEPERCFDVVLVNWGKVADLAICNDQLIGVAFSQSNVSSYVVDLTRVTRTGTVTQDPVQASQPQTQQTPNPGVSLRRIYERPSTTCSKPQRVKHNSESERRSPSSEDDKDERESRAEIQNAEDYNEIFQPKNSISRTPPRRSEPFPAPPEDDIATAKEASKPSPAMDVQLPVPSQEVPARPSVMTSTPAPKGEPVIIPATRNEPIGLKASDFLPAVKVPQQAELVDEDAMSQIRKGHDTMCVVLTSRHKNLDTVRAVWTTGDIKTSVDSAVAINDLSVVVDLLNIVNQKASLWKLDLCTTVLPQIEKLLQSKYESYVQTGCTSLKLILQRFLPLITDILAAPPSVGVDISREERLHKCRLCFKQLKSISGLVKSRSGLSGRHGSAFRELHLLMASLD	failed
MATRGSRSEKVKRIFQQFDGNHDGGLNREEMAALVVAVNPRVKFSDEQINAILDEVFRTYAEFIDPNKGLTYDGLLRTYDDGAGDVDRDFDALGLELNADETTIKGSEAASSSSITDERAVEAQKKQRTAAWAVSPNHGIVFDETWKLVDDLEILVKRLKSKQEKDGKLKADNNNNNVDAFSDAGWSRELGPSSEISEKRIYWEESSHDYGVFVKELGVLRSKADGARSREEAFDGHMAIGRVLYEHQLFKEALVSFKRACELQPTDVRPHFKAGNCLYVLGKCKESKDEFLLALEAAESGGNQWAYLLPQIYVNLGIALEGEGMVLSACEYYREAAILCPTHFRALKLLGSALFGVGEYRAAVKALEEAIYLKPDYADAHCDLASSLHSMGEDERAIEVFQRAIDLKPGHVDALYNLGGLYMDLGRFQRASEMYTRVLTVWPNHWRAQLNKAVSLLGAGETEEAKRALKEALKLTNRVELHDAISHLKHLQKKKGKNNGNGNGGEGPFIVVEPSKFKTVGEKTTLRPDLATALQIRAFQRVTRLGKCDVEAVRKEMRDNDVPVSYSGSGGPTKSIRKPNLEEILRRLLSSLKPDTFQGAIKAINEKILALLDDSGSGRVDMGMFYAVIAPLCGGHSDKRKRVAFDALLWRPVNEGSSQITKTDAVKYIKLLRAIYIPSHGMSEMLEVHGEEEAESSVTVTFNQFLAMFDDPDWGFGIMSTILKLEANDRNRHGNQVCSVCRYPVIGSRFKEVKARFSLCNQCYGEGKVPPSFKQEEYKFREYESEAEAMKAKCVCFSMQSHKKAIAT	failed
MATRPKTIWESFLSPVVRFLMDEDKWRRYAQSIDWEKESDRFRRTDVIIPSYYTSQNFHGIEGGYLNSSAAVTYDPITEYVLPPNETLVRQALIDGVKVQPRRILDLGCGTGSTTLMLKQAFPQADVIGLDLSPYMLVRAEDKARTADLDISWRHGNAEKTSFPNASFDLVTTSLLFHETPVEVSQTILQECFRLLVAGGQVIILDGNQKSLRQLNWLNDIFEEPYIREYAADNLDARMGAAGFVGVQTEDLWLIHQVTSGIKPILATDTNQIKDRQYMPAIDNNNLEGLESPAFGIVALEHHHHHH	failed
MATVERAMMLKTMRKHGVTLALFAAGSTGLTAAINELTKSTIDQQAALQQKALFDQVLPADRYNNDLLKSCYLVSAPALGKGQHKVWIAKNNDRPIGAVMEATAPDGYSGAIQLLVAADFSGTVLGTRVTEHHETPGLGDKIELRLSDWITHFAGKVIHGQGDSHWAVKKDGGDFDQFTGATITPRAVVNAVKRAGLYAQTLPAQLPEFTACGE	failed
MATYNYPEFGAGLWHFANYIDRYAVDGYGPALSTIDQINAAKEVGELSYVDLPYPFTPGVTLSEVKDALKDAGLKAIGITPEIYLQKWSRGAFTNPDPAARAAAFELMHESAGIVRELGANYVKVWPGQDGWDYPFQVSHKNLWKLAVDGMRDLAGANPDVKFAIEYKPREPRVKMTWDSAARTLLGIEDIGLDNVGVLLDFGHALYGGESPADSAQLIIDRGRLFGMDVNDNLRGWDDDLVVGTVHMTEIFEFFYVLKINNWQGVWQLDQFPFRENHVEAAQLSIRFLKHIYRALDKLDIPALQAAQEAQNPLQAQRIVQDALLSSITVSE	not failed
MAVDVPGIISPKTAEAASQLTDGIGGRAYLNSNGAILVTKIQLPSSTQVSNGTAYIYSGFSGGTESDIGFQYSDKYNVWKPYMKVGSKGQDQVQYLEGGSQFTNTKGFRPGSTVQLTIYKNLNGNTRATYWGTNNAGYNGRLISEISKTNVGSISKWKALATVATTGSRQSIKSNFSTSFTNITIDNKAITPVIDTQDFAKVTVSGNSVSLSVVKNLEHHHHHH	not failed
MAVECIKDKVTRYPERASYSDEDLVAMLDRNFTCTVSFIDGGIPYAIPMMLASEGKTIYLHGSMKSRIYGILKTGQLIAISLLEINGIVLAKEIKNNSINYVSALIFGRPYEIDDTEKKIEVFRLLTEKLVKGRRDNSIKPSYEDLNGVFVFAVKPETFSMKARTGPPHDTSTDDIWSGVLPIQHTISEAGENAPEYVKSLYGKRIFI	not failed
MAVERPGYLRIAAELRKRISSGEFGIGDQIPTLPALAEEYGVLETTVRNALALLRNEGLIETRARAGTRVRERPPIHRLTADRYRNKAGVPSTPFTRDQGIGWSEYRLDKKYEQVEATMELAALFECEVGEPLLARHFVFHDNDQPTQMSVSYLRWSDVEGSPVADPIHEPWPGGTQAQLASIGIRVTEITESFTCGMPTDHESKTLKIGSGVPVLRYTRRHIAEDGRIVEVAHPIVRRGDTTVVDFVIKLD	failed
MAVGLPLLLSSMAMPAQAAPAPEAPGNVAGVAKKNLDPGSYKDGRYMVVLAEKPAATYDGGTAGLAPTKPEEGKKLDVDSAEVKQYQQHLQQKQQEVAQQENVTIKRDFTTAVNGFSATLTADQAINLAKDPKVLMVAPDTQYAPDYSTTDFLKLSGPNGTWATQYGGQDNAGKGTVVGVIDTGYTPSNPFFAGEPVGPLVGNPQVGVPYRTADGKIAMLKADGDTFVGECQPGTDTGADYDGSACNSKVLSTHYFADAFLETVPPENRAPEEVISPVDVDSHGTHTASTAAGNANVDAVVDGRSFGTTSGIAPAAKLSVYKVCWEDTDPATGGCYGSASVDAIEQAILDGVDVLNYSISGSTTSTTDPVSLAFLSAASAGIFVATSAGNSGPTASTVNHGAPWLTTVAATSFSQELQGTVEFSDGSKFRGASIMNREVTGAGVVLSTNAASGEGNAALCAPGSLDPAKVAGKVVVCDRGVVDRTAKSAEVLRGGGVGMILVNLTDSSLDTDKHIIPTVHVNPPATQTIKDKVTANPAITVSLLNRDTTGLPAEAQPQIAGFSSRGPLLATDSDLLKPDVSAPGVAILAGVSPIGTGGDNFGFLSGTSMASPHVAGFGALILAKNPQWSPATVKSAMMTTAGPVKLANGAVNKDVFATGAGQVDPAKVLSPGLVYDATTEDYLKFIQGTGMDLGMEGLGTTQARDMNVPSFALGNLAGKIEVTRTLTALTPGTYRASVNVPGVNVKVTPSVLTFGAPGEKKTFKVQFENNNAALGKFAMGSLNWQGANKTVTSPIAVRPQSVIADKALAFTGTGPNGSGTINITSGTNLPVGVTIDGLSKADSSAVELVPGPFAGETNASNYVKKVTVGEGSALAKFSVISSNEAADFDMLVVTPSGQQLPAATASASETLSVPNPAAGDYYVYANLYASPNNQATKATVDAAVLGANQGNASVTPNPIRLANGKTGQISLNWKNLEPGSYIGRLTFAGTSEPSFVTVLVNPGGAVVVPDEEDPKKDKKDKKHRGKIRADEPTQSNNAG	failed
MAVKIQTPAGTIEITNDVIATVVGGAATDIYGIVGMASKNQIKDNLNDILRRENYSRGVVVRQEDNGIAVDVYTIVSYGTKISEVSRNVQEKVKYNLETLLGVTANSVNVFVQGVRVLPDLEHHHHHH	not failed
MAVPPVEMYSGSFWNRMRKPLPLRTQVIRFTVVFVIVSFILAVALQITHERMPDPKVTKPLPDLGFELLTKISFLSVVTDVLIAFLSLLSFFTLWKLYLLHRHCVGSGEPELPCNIPGVSRFFLSVWLCKENCRIELRNIHTIAWIRFITSYALLLLFRSLVIVMTSMPTPVDKCQDPPKIENPVKNVILTVLTAGGGSIHCGDLMYSGHTVILTLHLMFHWIYGAMVHWSFRPVVTVVAIFSYYCIVASRSHYTDDVLVAIYLTIATFIAVGHNADGAPWQLQLFIRWLPCCGANSREVTEDSQPVMVAFKSEAVDELRERDDSAGLSGEVSTNEVVSHHHHHH	failed
MAVSHSVKERTISENSLIILLQGLQGRVTTVDLRDESVAHGRIDNVDAFMNIRLAKVTYTDRWGHQVKLDDLFVTGPNVRYVHIPDDVNITSTIEQQLQIIHRVRNFGGKGQGRWEFPPKNCK	failed
